Data on 7 molecules can be found in paper PMC6949303 (Nature Communications, 2020).

First the molecules themselves.
B2: wild-type IgE-Fc3-4 (co-expressed with the ligelizumab scFv for crystallisation) (domain or fragment, human)
chain: CADSNPRGVSAYLSRPSPFDLFIRKSPTITCLVVDLAPSKGTVNLTWSRASGKPVNHSTRKEEKQRNGTLTVTSTLPVGTRDWIEGETYQCRVTHPHLPRALMRSTTKTSGPRAAPEVYAFATPEWPGSRDKRTLACLIQNFMPEDISVQWLHNEVQLPDARHSTTQPRKTKGSGFFVFSRLEVTRAEWEQKDEFICRAVHEAASPSQTVQRAVSVNP
notes: human IgE heavy chain constant region, Cε3 and Cε4 domains, wild type (C328); also called C328 IgE-Fc3-4 fragment; wt C328 IgE-Fc3-4; source: HEK 293-6E, co-transfected with ligelizumab scFv, complex purified from supernatant (Ni-NTA, Superdex 200)

Data set [1] has as its target B2. The data set can be described thus: crystal structure; scFv:IgE-Fc3-4 complex, hanging drop, 0.2 M Na thiocyanate pH 6.9, 20% PEG3350, 10 mM spermidine, 14 °C; 3.65 Å. As to conditions: both partners purified.
Data set [2] deals with the molecule itself. The description is as above.
Data set [3] addresses T1, wild-type C328 IgE-Fc3-4 (human, UniProt P01854 209-426).
T1 construct: human IgE heavy chain constant region, Cε3 and Cε4 domains, variant named C328; also called wt C328 IgE-Fc3-4
Nature of the data set: SPR; 1000 RU FcεRIα immobilised, 20 nM IgE-Fc3-4 captured; 3.13–100 nM ligelizumab or omalizumab injected 120 s, dissociation 180 s. Particulars: both partners purified. On the technique in general: SPR reads the build-up and loss of mass on a sensor chip optically.

For data set [4], the target named is T2, wild-type C328 IgE-Fc3-4 (Homo sapiens, UniProt P01854).
T2 construct: human IgE heavy chain constant region, Fc fragment of the Cε3 and Cε4 domains, wild-type variant named C328; PDB 6UQR holds wt C328 IgE-Fc3-4 made in HEK 293-6E for the crystal; also called wt C328 IgE-Fc3-4
The data set can be described thus: SPR; 100 RU ligelizumab or omalizumab IgG immobilised by amine coupling on CM5 (ligelizumab pH 5.0, omalizumab pH 4.5); 0.3-5 nM C328 or C335 IgE-Fc3-4 injected 120 s, dissociation 180 s; HBS-EP+, 10 ul/min, Biacore X100; 1:1 langmuir fit. Particulars: both partners purified.

Data set [5] concerns the target T3, wild-type C328 IgE-Fc3-4 (human, UniProt P01854).
T3 construct: human IgE heavy chain constant region, Cε3 and Cε4 domains, variant named C328; also called wt C328 IgE-Fc3-4
Nature of the data set: SPR; Biacore X100, CM5 chip, HBS-EP+; 100 RU ligelizumab or omalizumab IgG immobilised; 0.3–5 nM C328 or C335 IgE-Fc3-4 injected 120 s, dissociation 180 s. As to conditions: both partners purified.

A further data set concerns the target T4, Ligelizumab IgG.
T4 construct: constant region of the IgG heavy chain; constant region of the light chain; also called QGE031; source: produced and provided by Novartis Pharma AG
Nature of the data set: SPR; 100 RU ligelizumab or omalizumab IgG immobilised by amine coupling on CM5 (ligelizumab pH 5.0, omalizumab pH 4.5); 0.3-5 nM C328 or C335 IgE-Fc3-4 injected 120 s, dissociation 180 s; HBS-EP+, 10 ul/min, Biacore X100; 1:1 langmuir fit. Particulars: both partners purified.

In another data set the target is T5, Omalizumab IgG.
T5 construct: also called Xolair; source: produced and provided by Novartis Pharma AG
The description is as above. As to conditions: both partners purified.

The term stoichiometry N denotes the number of molecules, sites or subunits per partner or assembly. The Kd is a measure of binding affinity in units of concentration. Low readings indicate tighter binding, high ones weaker binding. In general, koff refers to the rate constant with which the complex falls apart. A higher koff goes with fast dissociation. One may read the kon as the second-order rate constant of association. A high value points to faster complex formation.

B1: ligelizumab single chain fragment variable (scFv) (scFv)
scFv: QVQLVQSGAEVMKPGSSVKVSCKASGYTFSWYWLEWVRQAPGHGLEWMGEIDPGTFTTNYNEKFKARVTFTADTSTSTAYMELSSLRSEDTAVYYCARFSHFSGSNYDYFDYWGQGTLVTVSSGTGGSGGGGSGGGGSGGGASEIVMTQSPATLSVSPGERATLSCRASQSIGTNIHWYQQKPGQAPRLLIYYASESISGIPARFSGSGSGTEFTLTISSLQSEDFAVYYCQQSWSWPTTFGGGTKVEIKENLYFQ
notes: ligelizumab VH domain; GTG(GSGGG)3AS linker; ligelizumab VL domain; also called ligelizumab scFv; ligelizumab single chain Fv; source: HEK 293-6E, co-transfected with IgE-Fc3-4, complex purified from supernatant (Ni-NTA, Superdex 200); not shown: His8, C-terminal, cleaved
As to B1, the binding result in data set [1] was “binds”.

Regarding B2, in data set [2], the “stoichiometry N” value was 2.

B3: Recombinant extracellular part of human FcεRIα (receptor, UniProt P12319 26-205, looked up)
chain: VPQKPKVSLNPPWNRIFKGENVTLTCNGNNFFEVSSTKWFHNGSLSEETNSSLNIVNAKFEDSGEYKCQHQQVNESEPVYLEVFSDWLLLQASAEVVMEGQPLFLRCHGWRNWDVYKVIYYKDGEALKYWYENHNISITNATVEDSGTYYCTGKVWQLDYESEPLNITVIKAPREKYWLQ
notes: also called recombinant human FcεRIα
For B3, in the data set with wild-type C328 IgE-Fc3-4 [3], the binding result is “binds”.

B4: Ligelizumab IgG (antibody, V domains shown)
VH: QVQLVQSGAEVMKPGSSVKVSCKASGYTFSWYWLEWVRQAPGHGLEWMGEIDPGTFTTNYNEKFKARVTFTADTSTSTAYMELSSLRSEDTAVYYCARFSHFSGSNYDYFDYWGQGTLVTVSS
VL: EIVMTQSPATLSVSPGERATLSCRASQSIGTNIHWYQQKPGQAPRLLIYYASESISGIPARFSGSGSGTEFTLTISSLQSEDFAVYYCQQSWSWPTTFGGGTKVEIK
notes: constant region of the IgG heavy chain; constant region of the light chain; also called QGE031; source: produced and provided by Novartis Pharma AG
As to B4, in the data set with wild-type C328 IgE-Fc3-4 [4], binding was characterised by a dissociation constant (Kd) of 11 pM, the koff turned out to be 0.00014 s⁻¹ and the kon came out at 1.3e+07 M⁻¹ s⁻¹.

B5: Ligelizumab IgG (antibody, V domains shown)
VH: QVQLVQSGAEVMKPGSSVKVSCKASGYTFSWYWLEWVRQAPGHGLEWMGEIDPGTFTTNYNEKFKARVTFTADTSTSTAYMELSSLRSEDTAVYYCARFSHFSGSNYDYFDYWGQGTLVTVSS
VL: EIVMTQSPATLSVSPGERATLSCRASQSIGTNIHWYQQKPGQAPRLLIYYASESISGIPARFSGSGSGTEFTLTISSLQSEDFAVYYCQQSWSWPTTFGGGTKVEIK
notes: heavy chain constant region of the IgG; light chain constant region; also called QGE031; source: produced and provided by Novartis Pharma AG
As for B5, the “fold higher affinity than C335 IgE-Fc3-4” value with wild-type C328 IgE-Fc3-4 [5] is around 60 fold.

B6: mutated C335 IgE-Fc3-4 (domain or fragment)
chain: AADSNPRCVSAYLSRPSPFDLFIRKSPTITCLVVDLAPSKGTVNLTWSRASGKPVNHSTRKEEKQRNGTLTVTSTLPVGTRDWIEGETYQCRVTHPHLPRALMRSTTKTSGPRAAPEVYAFATPEWPGSRDKRTLACLIQNFMPEDISVQWLHNEVQLPDARHSTTQPRKTKGSGFFVFSRLEVTRAEWEQKDEFICRAVHEAASPSQTVQRAVSVNPGK
modifications: Disulfide-linked homodimer via Cys335 (entity position 11), closed Cε3 conformation; N-glycosylated at Asn394. The change is not given; it is taken from 5HYS entity 3 (C328A/G335C). …
In the data set with Ligelizumab IgG, B6 gave a Kd of 640 pM, a koff of 0.0065 s⁻¹ and a kon of 1.1e+07 M⁻¹ s⁻¹.

B7: mutated C335 IgE-Fc3-4 (domain or fragment)
chain: AADSNPRCVSAYLSRPSPFDLFIRKSPTITCLVVDLAPSKGTVNLTWSRASGKPVNHSTRKEEKQRNGTLTVTSTLPVGTRDWIEGETYQCRVTHPHLPRALMRSTTKTSGPRAAPEVYAFATPEWPGSRDKRTLACLIQNFMPEDISVQWLHNEVQLPDARHSTTQPRKTKGSGFFVFSRLEVTRAEWEQKDEFICRAVHEAASPSQTVQRAVSVNPGK
Turning to B7, in the data set with Omalizumab IgG, the Kd came out at 608 pM, the koff is 0.0049 s⁻¹ and the kon is 7.7e+06 M⁻¹ s⁻¹.
